Reference: the supplement of paper PMC12042874
± gives the uncertainty stated by the source.

Assay: amyloid nucleation score (Sup35N fusion, yeast selection) (log enrichment); library NNK3; higher = more nucleation; inactive = no reads after selection
Summary of the method: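 Peptides of 20 random codons, each fused to Sup35N, were expressed in psi-negative yeast. Cells were induced with 100 μM copper sulfate for 24 hours and grown 7 days at 30°C on medium lacking adenine and uracil, and plasmid inserts before and after selection were Illumina-sequenced. Nucleation scores are DiMSum log enrichments of output over input reads, centred on the mode score of non-aggregating sequences, and sequences under 100 input reads were excluded.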

Substance | amyloid nucleation score
YGNVIFRFVRADERI | 0.314 ± 0.35
EFPRGLGSR | -0.236 ± 1
GRRMWCCREAHRSNDQV | 1.28 ± 0.11
RSAKAYLTLWCRMYNPRIYM | -0.345 ± 1.3
NIGNHYCRYNGWDMLNRGEL | inactive
YREVYLNRRLERL | inactive
PMKGSSMSTPTANIRQ | -0.135 ± 1.1
ANCCYPDLSCYVLYCGSSCL | 2.41 ± 0.076
LRHGSSEFNYGNFFLCLFEQ | 2.56 ± 0.075
CYYDSLYCVEFHFCNYIVVL | -0.127 ± 0.99
HSLVVNSSSERRYG | inactive
TKHPLYM | inactive
IDFILWQFVMF | inactive
WEFLCFFAT | inactive
CMTLYLLSLSC | inactive
SRNYLVSPIDAPEQQSCVEE | inactive
TDIFKSFIRNMNLVWFRVMT | inactive
HLYHENSVFQLCVCTFVYSS | 2.91 ± 0.069
LNLQNVVYGTMSEHSASSVD | inactive
LIKWFSFRWLVTILVIDQTY | inactive

Substance | amyloid nucleation score
GNFESVSDRKFSISFHCWHS | inactive
IWPWYCKHNIFVKYHRLVER | inactive
SSSTANYLSIKFSLSLLKYN | 0.905 ± 0.14
GCYEGMLVIFLVFWLVVVYP | inactive
TTGLFE | inactive
NQCIAYYGISRLWQM | inactive
CSNLVLP | -0.765 ± 1.4
VAIIAYQWSIPSMAGPVNRR | 0.652 ± 0.28
FNVVMSRYIYYCVMGVIRMS | inactive
NYSAFRGSMIV | inactive
IRYCGHIRTGCFRLISDLF | inactive
AEWGFVGGIYWYLRKVPRSH | inactive
NMRYKHAWNLEVVVLKVHVY | inactive
FLLVYWLVLVFPIVGNLMPE | inactive
MNWGYILLYVWDVSKNRYGF | inactive
ELFDERQRLEPI | inactive
GYECLIVFFMRLLSIPVVSD | inactive
RLIILNVFVSDNTNWLHRIH | 1.37 ± 0.083
VFKMACEWSALWWNLLHTYS | inactive
LSNIICSCQLCWACPSLSVM | 2.47 ± 0.057

Substance | amyloid nucleation score
REWRSNDGFFGSDSGVVGHT | inactive
SCDLELSNLELRVWRDTVRK | 1.8 ± 0.069
AIRPKSGAWSHLCYASIG | inactive
IMQFGDFYIIQRERRSYVLW | 2.25 ± 0.087
GAMWLSCT | inactive
WLGRTATQFNIC | inactive
TPKLAALFS | -0.497 ± 1.3
VMNHLRRTNLVPTSAVNAYN | inactive
VMRFHVLKVLACCVNGGFDL | 2.73 ± 0.072
TTSLKTHVLPRNVFRFEPYM | inactive
CGMRNLR | inactive
KSMYWLYCTEWEHSNMHVFM | 0.17 ± 0.68
RDSFVFYVY | inactive
RSTSVWRFLWMLHVFSKLLH | inactive
RSARQHFPRNRGGNHSSDRV | 0.204 ± 0.43
HNEHILSQ | inactive
CVVNLHSRIEARLLQIYRAV | inactive
IIPKRLDVR | -0.397 ± 0.7
IKWEQRLVVYIAYKKHRWQR | inactive
